From the supplement of paper PMC6755084

These sequences were tested on F1*sub RNA substrate (template-directed ligation) (assay: fraction ligated after 30 min (ligated reads / total reads); higher = more ligase activity; sequences stand for … in GAGACCGCAACTGAAAAGTTGT…AGTTCTGCACGTAGAAGCAAAAGGC). Details: 42 °C.
Procedure, shortened: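 Oligo-pool templates of ligase ribozyme variants were PCR-amplified, T7-transcribed and gel-purified. Ligated and unligated bands were gel-separated, reverse transcribed with barcoded primers, and MiSeq-sequenced; core bases were filtered at quality ≥20. Fraction ligated per variant was ligated reads over total reads.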
ATCACTTGTCGTAGACACTTTGGATGGGTTGA [2d12] was tested, and the fraction ligated was 0.789.
“TATCACTTGTCGTAAGACATTTGGATGGTTGA [2d273]” showed a fraction ligated of 0.121.
TATACTTGTCTAAGACACTTTGGATGGGTTG [3d856] showed a fraction ligated of 0.633.
“TATCACTTGTCGAGACACTTTGGATGGGTTGA [2d208]” was tested, and the fraction ligated was 0.816.
“TATCATTGTCGTAAGACACTTTATGGGTTGA [3d1276]” was tested, and the fraction ligated was 0.0281.
TACACTTGTGTAAGACATTTGGATGGGTTGA [3d624] gave a fraction ligated of 0.392.
In the case of “TATCATTGTCGAAGACACTTTGGTGGGTTGA [3d1209]”, the fraction ligated is reported as 0.229.
Sequence “TATCACTTGTCTAAGCACTTGGATGGGTTGA [3d1849]” has a fraction ligated of 0.766.
For “TATCACTTGTCGTAAGCACTTTGGAGGGTTGA [2d250]”, the fraction ligated was 0.157.
Sequence TAACTTGTCGTAAGACACTTTGATGGGTTGA [3d522] has a fraction ligated of 0.0453.
For “TATCACTTGTCGTAACCTTTGGATGGGTTGA [3d1994]”, the fraction ligated was 0.821.
“TATCACTTGTCGTAAGACCTTTGGTGGGTTGA [2d264]” showed a fraction ligated of 0.114.
In the case of “TATCACTTGTCGTAAGAACTTGGATGGGTTG [3d2165]”, the fraction ligated is reported as 0.777.
“TATCACTGTCGTAAGACCTTTGGAGGGTTGA [3d1429]” gave a fraction ligated of 0.133.
Work on “TATCACTTGCGTAGACACTTGGATGGGTTGA [3d1632]” yielded a fraction ligated of 0.779.
Work on TACACTTGTCGTAAACACTTTGGAGGGTTGA [3d678] yielded a fraction ligated of 0.0486.
Sequence “TATCACTTGTCGTAAGACATTTGATGGGTTA [3d2218]” has a fraction ligated of 0.0152.
“TATCACTTGTCGTAAGACACTTTGATGGGTTA [2d287]” was tested, and the fraction ligated was 0.167.
ACACTTGTCGTAAGACACTTTGGATGGTTGA [3d43] was tested, and the fraction ligated was 0.662.
“TATCCTTGTCGAGACACTTTGGATGGGTTGA [3d1029]” gave a fraction ligated of 0.793.
With “TATCACTTGTCGAAGACACTTTGATGGGTTA [3d1968]” the fraction ligated was 0.15.
Work on “TATCACTTGTCGTAACACTTTGGAGGGTTGA [3d1999]” yielded a fraction ligated of 0.0382.
Sequence “TATCACTTGTCGTAAACACTTTGATGGTTGA [3d2091]” has a fraction ligated of 0.0645.
Work on TATACTTGTCTAAGCACTTTGGATGGGTTGA [3d846] yielded a fraction ligated of 0.779.
“TATCACTTGTCGTAAGACCTTTATGGGTTGA [3d2190]” gave a fraction ligated of 0.11.
ATCACTTGTCGTAAGCACTTTGGATGGGTTA [3d229] was tested, and the fraction ligated was 0.34.
“TATCACTTTCTAAGCACTTTGGATGGGTTGA [3d1482]” gave a fraction ligated of 0.788.
With TATCACTGTCGTAAGACACTTTGGATGGGTTGA [1d7] the fraction ligated was 0.806.
For “TATCACTTTCTAAGACATTTGGATGGGTTGA [3d1485]”, the fraction ligated was 0.818.
Sequence “TATCACTTGTCGAAGAACTTTGGTGGGTTGA [3d1938]” has a fraction ligated of 0.173.
In the case of TACACTTGTGAAGACACTTTGGATGGGTTGA [3d618], the fraction ligated is reported as 0.345.
For ATCACTTTCGTAAGACACTTTGGATGGGTTG [3d139], the fraction ligated was 0.777.
Work on TATCATTGTCGTAAGACACTTTGGATGGGTTGA [1d6] yielded a fraction ligated of 0.796.
For “TATCACTTGTCGTAGAACTTTGGATGGGTTA [3d2019]”, the fraction ligated was 0.854.
In the case of “TATCACTTTCGTAAGACACTTTGAGGGTTGA [3d1570]”, the fraction ligated is reported as 0.0593.
Sequence “TATCACTTGTCGTAAGAACTTTGGATGGTTA [3d2179]” has a fraction ligated of 0.11.
Work on “TATCACTTGTCGTAAGAACTTTGATGGGTTG [3d2171]” yielded a fraction ligated of 0.726.
With “TATCACTTGCGTAAGACCTTTGGATGGTTGA [3d1671]” the fraction ligated was 0.176.
TATACTGTCGTAAGACATTTGGATGGGTTGA [3d788] gave a fraction ligated of 0.756.
“TATCACTTGTCGTAGAACTTTGGATGGGTTG [3d2020]” was tested, and the fraction ligated was 0.854.
“TATCACTTGTCGTAGAACTTTGATGGGTTGA [3d2015]” was tested, and the fraction ligated was 0.848.
TTCACTTGTCGTAGACACTTGGATGGGTTGA [3d435] gave a fraction ligated of 0.489.
Work on TTCACTTGTCGTAAGACATTGGATGGGTTGA [3d477] yielded a fraction ligated of 0.653.
With “TATCACTTGTCTAAGACCTTTGGATGGTTGA [3d1868]” the fraction ligated was 0.269.
With “TATCACTTGTCGTAAGAACTTTGGAGGGTTA [3d2177]” the fraction ligated was 0.075.
TACATTGTCGTAAGACACTTGGATGGGTTGA [3d559] gave a fraction ligated of 0.19.
ATCACTTGTCGTAAGACATTTGGTGGGTTGA [3d248] gave a fraction ligated of 0.00393.
With “TATCACTGTCGTAAGACACTTTGGTGGGTTG [3d1456]” the fraction ligated was 0.343.
Sequence “TATCACTTGCGAAGACACTTTGATGGGTTGA [3d1620]” has a fraction ligated of 0.77.
“TATCATTGTCGTAAGACCTTTGGATGGTTGA [3d1259]” gave a fraction ligated of 0.493.
ATCACTTGTGTAAGACACTTTGGATGGTTGA [3d168] was tested, and the fraction ligated was 0.45.
Sequence “TATCACTTGTCGTAAGCACTGGATGGGTTGA [3d2128]” has a fraction ligated of 0.771.
In the case of “TATCACTTGTGAAGCACTTTGGATGGGTTGA [3d1720]”, the fraction ligated is reported as 0.845.
TATACTTGTCTAAGACCTTTGGATGGGTTGA [3d848] was tested, and the fraction ligated was 0.481.
In the case of “TATCACTTGTCGTAAAACTTTGGATGGGTTG [3d2066]”, the fraction ligated is reported as 0.791.
“TATCACTTGTCGAGACACTTTGGAGGGTTGA [3d1911]” gave a fraction ligated of 0.104.
Work on “TATCACTTGCGTAAGACATTTGGATGGTTGA [3d1678]” yielded a fraction ligated of 0.16.
With “TATCACTTGTCGTAAACACTTGGATGGTTGA [3d2085]” the fraction ligated was 0.105.
“TATCATTGGTAAGACACTTTGGATGGGTTGA [3d1156]” was tested, and the fraction ligated was 0.809.
In the case of “TATCATTGTGAAGACACTTTGGATGGGTTGA [3d1173]”, the fraction ligated is reported as 0.824.
For TTCACTTGTCGTAAGCACTTTGGATGGGTTG [3d461], the fraction ligated was 0.601.
“TATCATTGTCGTAAGAACTTTGGAGGGTTGA [3d1251]” showed a fraction ligated of 0.0299.
“TATCATGTGTAAGACACTTTGGATGGGTTGA [3d1124]” was tested, and the fraction ligated was 0.84.
Sequence TATACTTGTCGTAGACACTTTGATGGGTTGA [3d877] has a fraction ligated of 0.36.
With “TATCACTTTCGTAAGACACTTTGGTGGGTTG [3d1577]” the fraction ligated was 0.0247.
For TTCACTTGTCGTAAGACCTTTGGATGGGTTG [3d476], the fraction ligated was 0.77.
For TATACTGCGTAAGACACTTTGGATGGGTTGA [3d779], the fraction ligated was 0.779.
Work on TTCCTTGTCGTAAGACACTTTGGAGGGTTGA [3d313] yielded a fraction ligated of 0.186.
Sequence “TATCACTTGTCTAGACACTTTGGATGGGTTG [3d1835]” has a fraction ligated of 0.76.
Sequence TATACTTTCGTAAGACACTTTGGATGGTTGA [3d809] has a fraction ligated of 0.0312.
TACACTTGTCGTAAACACTTTGGTGGGTTGA [3d677] gave a fraction ligated of 0.0298.
“TATCATTGTGTAAGACCTTTGGATGGGTTGA [3d1178]” was tested, and the fraction ligated was 0.875.
With TTCACTTGTCGTAAGACATTTGGATGGGTTGA [2d39] the fraction ligated was 0.776.
Work on TACACTTGTCGTAAGACACTTTGGAGGGTTGA [2d65] yielded a fraction ligated of 0.182.
Work on “TATCACTTGTGTAAGACATTTGGAGGGTTGA [3d1782]” yielded a fraction ligated of 0.0398.
Sequence ATCACTTTCGTAAGACATTTGGATGGGTTGA [3d132] has a fraction ligated of 0.781.
For TATACTTTCGTAAGACACTTTGGAGGGTTGA [3d808], the fraction ligated was 0.00847.
“TATCACTTGTGTAAGCACTTTGGATGGGTTG [3d1763]” was tested, and the fraction ligated was 0.851.
In the case of ATCACTTGTCTAAGACACTTTGGATGGGTTGA [2d10], the fraction ligated is reported as 0.765.
For “TATCCTTGTCGTAAGACACTTGGAGGGTTGA [3d1100]”, the fraction ligated was 0.00692.
Sequence “TATCACTTGTCGTAGACACTTTGGTGGTTGA [3d2049]” has a fraction ligated of 0.0676.
“TATCACTTGTCGAAGACACTTTGGATGGTTG [3d1978]” gave a fraction ligated of 0.432.
TACACTTGTCGTAAGACACTTTGATGGGTTA [3d725] was tested, and the fraction ligated was 0.0317.
TATACTTGTCGTAAGACACTTGGATGGGTTA [3d930] gave a fraction ligated of 0.0948.
Work on “TATCACTTGTGTAAAACTTTGGATGGGTTGA [3d1744]” yielded a fraction ligated of 0.856.
TACACTTGTGTAAGACCTTTGGATGGGTTGA [3d623] was tested, and the fraction ligated was 0.0441.
Work on “TATCACTTGTCTAAACACTTTGGAGGGTTGA [3d1842]” yielded a fraction ligated of 0.133.
Sequence “TATCACTTGTCGTAAGCCTTTGGATGGTTGA [3d2118]” has a fraction ligated of 0.364.
In the case of TTCACTTGTCGTAAGACACTTTGGATGGGTT [3d506], the fraction ligated is reported as 0.0428.
For TTCCTTTCGTAAGACACTTTGGATGGGTTGA [3d299], the fraction ligated was 0.753.
TACACTTGTCGTAAGACACTTTGGTGGGTTG [3d730] showed a fraction ligated of 0.035.
“TATCATTGTCTAAGACACTTTGATGGGTTGA [3d1195]” showed a fraction ligated of 0.751.
Sequence “TATCACTTGTCGTAAACACTTTGGGGGTTGA [3d2094]” has a fraction ligated of 0.0881.
“TATCATTGTCGTAGACACTTTGGATGGTTGA [3d1224]” was tested, and the fraction ligated was 0.305.
Sequence “TATCCTTGTCGTAAAACTTTGGATGGGTTGA [3d1055]” has a fraction ligated of 0.792.
In the case of TATCCTTTGTAAGACACTTTGGATGGGTTGA [3d968], the fraction ligated is reported as 0.772.
For TTCACTTGTCGAAGACACTTTGGATGGTTGA [3d426], the fraction ligated was 0.578.
TATCCTGTGTAAGACACTTTGGATGGGTTGA [3d952] showed a fraction ligated of 0.791.
“TATCCTTGTGTAAGCACTTTGGATGGGTTGA [3d1004]” gave a fraction ligated of 0.788.
In the case of “TATCACTTGTCGAGACCTTTGGATGGGTTGA [3d1906]”, the fraction ligated is reported as 0.788.
For “TATCACTGTCGTAAGACACTTGGATGGTTGA [3d1444]”, the fraction ligated was 0.382.
“TATCACTGCGTAAGACACTTTGGTGGGTTGA [3d1338]” showed a fraction ligated of 0.119.
For TTCACTTTCTAAGACACTTTGGATGGGTTGA [3d356], the fraction ligated was 0.36.
“TATCACTGTCTAAGACACTTTGATGGGTTGA [3d1366]” was tested, and the fraction ligated was 0.77.
Sequence “TATCACTTGCTAAGACACTTTGGATGGGTTG [3d1612]” has a fraction ligated of 0.8.
In the case of “TATCACTTTCTAAGACACTTTGGTGGGTTGA [3d1488]”, the fraction ligated is reported as 0.101.
TTCACTGTCGTAAGACACTTTGGAGGGTTGA [3d351] showed a fraction ligated of 0.327.
“TATCACTTGTGTGACACTTTGGATGGGTTGA [3d1731]” gave a fraction ligated of 0.826.
With TACCTTGTCGAAGACACTTTGGATGGGTTGA [3d533] the fraction ligated was 0.676.
For “TATCACGTCGTAAGACACTTTGGATGGGTTA [3d1309]”, the fraction ligated was 0.734.
Sequence “TATCACTTGTGTAAGACACTTTGGAGGTTGA [3d1803]” has a fraction ligated of 0.0314.
“TATCACTTGTCGTAAGACACTTTGGAGGGTTA [2d294]” was tested, and the fraction ligated was 0.0266.
